Biological target: the molecule itself
Assay: SEC; Superdex 200 Increase 5/150 GL, 50 mM HEPES pH 7, 300 mM KCl, room temperature, 0.3 mL/min; loaded at 23 µM, eluting at around 7.5 µM; apparent mass against a calibration curve; self-association (dimer)

B1: phosphoserine aminotransferase (PSAT), wild type, human, PSAT beta (enzyme)
chain: MDAPRQVVNFGPGPAKLPHSVLLEIQKELLDYKGVGISVLEMSHRSSDFAKIINNTENLVRELLAVPDNYKVIFLQGGGCGQFSAVPLNLIGLKAGRCADYVVTGAWSAKAAEEAKKFGTINIVHPKLGSYTKIPDPSTWNLNPDASYVYYCANETVHGVEFDFIPDVKGAVLVCDMSSNFLSKPVDVSKFGVIFAGAQKNVGSAGVTVVIVRDDLLGFALRECPSVLEYKVQAGNSSLYNTPPCFSIYVMGLVLEWIKNNGGAAAMEKLSSIKSQTIYEIIDNSQGFYVCPVEPQNRSKMNIPFRIGNAKGDDALEKRFLDKALELNMLSLKGHRSVGGIRASLYNAVTIEDVQKLAAFMKKFLEMHQL
notes: human phosphoserine aminotransferase, splice form PSAT beta (the long form; PSAT alpha lacks 46 amino acids between V290 and S337); PLP-dependent homodimer; also called wt PSAT; WT; source: E. coli BL21(DE3) tuner, purified (IMAC, Talon superflow); not shown: His tag (from the IMAC purification on Talon)
In the case of B1, the “stoichiometry N” value is reported as 2.

From paper PMC10452355, “Phosphoserine Aminotransferase Pathogenetic Variants in Serine Deficiency Disorders: A Functional Characterization” (Biomolecules, 2023)
